Laboratory results published in patent US20180155451A1 (published 2018).

T1: FcγRIIb (human, UniProt P31994 43-217)
T1 construct: extracellular domain; also called 2b; FcgRIIb
T1 sequence (looked up): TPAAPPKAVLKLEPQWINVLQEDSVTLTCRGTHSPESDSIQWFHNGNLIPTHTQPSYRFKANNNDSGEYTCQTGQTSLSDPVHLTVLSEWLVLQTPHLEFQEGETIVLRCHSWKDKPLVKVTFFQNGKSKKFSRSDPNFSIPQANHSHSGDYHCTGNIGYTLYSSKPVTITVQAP

B1: GpH7-B3 variant T335_20W/GpL16-k0 (antibody, human IgG1, kappa)
heavy: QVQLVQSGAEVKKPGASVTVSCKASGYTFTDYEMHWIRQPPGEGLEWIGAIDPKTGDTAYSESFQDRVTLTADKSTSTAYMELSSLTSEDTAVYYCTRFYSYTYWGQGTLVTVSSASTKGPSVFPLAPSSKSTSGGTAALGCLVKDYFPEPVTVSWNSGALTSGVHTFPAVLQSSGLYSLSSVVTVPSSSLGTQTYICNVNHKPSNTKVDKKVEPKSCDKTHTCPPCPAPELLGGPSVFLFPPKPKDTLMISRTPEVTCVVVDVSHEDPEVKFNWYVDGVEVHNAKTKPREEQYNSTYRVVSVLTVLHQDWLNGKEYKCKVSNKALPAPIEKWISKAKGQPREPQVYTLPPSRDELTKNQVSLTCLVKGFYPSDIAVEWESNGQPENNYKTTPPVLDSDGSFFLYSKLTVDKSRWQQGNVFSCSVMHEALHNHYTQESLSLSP
light: DIVMTQSPLSLPVTPGEPASISCQASESLVHSNRNTYLHWYLQKPGQSPQLLIYKVSNRFSGVPDRFSGSGSGTDFTLKISRVEAEDVGVYYCSQNTHVPPTFGQGTKVEIERTVAAPSVFIFPPSDEQLKSGTASVVCLLNNFYPREAKVQWKVDNALQSGNSQESVTEQDSKDSTYSLSSTLTLSKADYEKHKVYACEVTHQGLSSPVTKSFNRGEC
notes: also called Ho Ab T335_20W
B2: GpH7-B3 variant Y296_20W/GpL16-k0 (antibody, human IgG1, kappa)
heavy: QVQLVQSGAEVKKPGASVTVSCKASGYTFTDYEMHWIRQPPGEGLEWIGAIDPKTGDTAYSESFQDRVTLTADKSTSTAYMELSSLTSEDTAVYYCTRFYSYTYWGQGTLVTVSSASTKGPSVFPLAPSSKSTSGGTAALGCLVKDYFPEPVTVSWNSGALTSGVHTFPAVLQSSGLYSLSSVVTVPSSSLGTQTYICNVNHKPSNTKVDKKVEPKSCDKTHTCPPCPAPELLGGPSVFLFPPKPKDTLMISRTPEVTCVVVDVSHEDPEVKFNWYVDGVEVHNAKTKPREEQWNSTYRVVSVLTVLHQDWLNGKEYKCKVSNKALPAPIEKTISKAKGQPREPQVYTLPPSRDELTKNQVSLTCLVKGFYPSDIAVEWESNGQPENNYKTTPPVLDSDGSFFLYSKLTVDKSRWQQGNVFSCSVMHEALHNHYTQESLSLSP
light: DIVMTQSPLSLPVTPGEPASISCQASESLVHSNRNTYLHWYLQKPGQSPQLLIYKVSNRFSGVPDRFSGSGSGTDFTLKISRVEAEDVGVYYCSQNTHVPPTFGQGTKVEIERTVAAPSVFIFPPSDEQLKSGTASVVCLLNNFYPREAKVQWKVDNALQSGNSQESVTEQDSKDSTYSLSSTLTLSKADYEKHKVYACEVTHQGLSSPVTKSFNRGEC
notes: also called Ho Ab Y296_20W
B3: GpH7-B3 variant V266_06M/GpL16-k0 (antibody, human IgG1, kappa)
heavy: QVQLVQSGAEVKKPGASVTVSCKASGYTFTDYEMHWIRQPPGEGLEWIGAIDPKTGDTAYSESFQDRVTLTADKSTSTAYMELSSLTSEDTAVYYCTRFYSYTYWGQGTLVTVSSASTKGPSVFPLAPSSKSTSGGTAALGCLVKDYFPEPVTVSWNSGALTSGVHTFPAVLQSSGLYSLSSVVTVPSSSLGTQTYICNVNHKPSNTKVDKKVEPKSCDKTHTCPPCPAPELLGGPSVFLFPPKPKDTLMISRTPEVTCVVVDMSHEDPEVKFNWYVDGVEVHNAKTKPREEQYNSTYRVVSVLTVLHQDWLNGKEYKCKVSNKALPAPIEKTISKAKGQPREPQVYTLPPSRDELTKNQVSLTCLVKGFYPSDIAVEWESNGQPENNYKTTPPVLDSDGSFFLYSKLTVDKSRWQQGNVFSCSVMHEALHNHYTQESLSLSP
light: DIVMTQSPLSLPVTPGEPASISCQASESLVHSNRNTYLHWYLQKPGQSPQLLIYKVSNRFSGVPDRFSGSGSGTDFTLKISRVEAEDVGVYYCSQNTHVPPTFGQGTKVEIERTVAAPSVFIFPPSDEQLKSGTASVVCLLNNFYPREAKVQWKVDNALQSGNSQESVTEQDSKDSTYSLSSTLTLSKADYEKHKVYACEVTHQGLSSPVTKSFNRGEC
notes: also called Ho Ab V266_06M
B4: GpH7-A5/GpH7-B3 variant G237_02A/GpL16-k0 (antibody, human IgG1, kappa)
heavy 1: not shown
heavy 2: not shown
light: DIVMTQSPLSLPVTPGEPASISCQASESLVHSNRNTYLHWYLQKPGQSPQLLIYKVSNRFSGVPDRFSGSGSGTDFTLKISRVEAEDVGVYYCSQNTHVPPTFGQGTKVEIERTVAAPSVFIFPPSDEQLKSGTASVVCLLNNFYPREAKVQWKVDNALQSGNSQESVTEQDSKDSTYSLSSTLTLSKADYEKHKVYACEVTHQGLSSPVTKSFNRGEC
notes: also called He Ab G237_02A
B5: GpH7-A5/GpH7-B3 variant A327_18N/GpL16-k0 (antibody, human IgG1, kappa)
heavy 1: not shown
heavy 2: not shown
light: DIVMTQSPLSLPVTPGEPASISCQASESLVHSNRNTYLHWYLQKPGQSPQLLIYKVSNRFSGVPDRFSGSGSGTDFTLKISRVEAEDVGVYYCSQNTHVPPTFGQGTKVEIERTVAAPSVFIFPPSDEQLKSGTASVVCLLNNFYPREAKVQWKVDNALQSGNSQESVTEQDSKDSTYSLSSTLTLSKADYEKHKVYACEVTHQGLSSPVTKSFNRGEC
notes: also called He Ab A327_18N
B6: GpH7-A5/GpH7-B3 variant H268_05P/GpL16-k0 (antibody, human IgG1, kappa)
heavy 1: not shown
heavy 2: not shown
light: DIVMTQSPLSLPVTPGEPASISCQASESLVHSNRNTYLHWYLQKPGQSPQLLIYKVSNRFSGVPDRFSGSGSGTDFTLKISRVEAEDVGVYYCSQNTHVPPTFGQGTKVEIERTVAAPSVFIFPPSDEQLKSGTASVVCLLNNFYPREAKVQWKVDNALQSGNSQESVTEQDSKDSTYSLSSTLTLSKADYEKHKVYACEVTHQGLSSPVTKSFNRGEC
notes: also called He Ab H268_05P
B7: GpH7-A5/GpH7-B3 variant G237_18N/GpL16-k0 (antibody, human IgG1, kappa)
heavy 1: not shown
heavy 2: not shown
light: DIVMTQSPLSLPVTPGEPASISCQASESLVHSNRNTYLHWYLQKPGQSPQLLIYKVSNRFSGVPDRFSGSGSGTDFTLKISRVEAEDVGVYYCSQNTHVPPTFGQGTKVEIERTVAAPSVFIFPPSDEQLKSGTASVVCLLNNFYPREAKVQWKVDNALQSGNSQESVTEQDSKDSTYSLSSTLTLSKADYEKHKVYACEVTHQGLSSPVTKSFNRGEC
notes: also called He Ab G237_18N
B8: GpH7-A5/GpH7-B3 variant G237_09D/GpL16-k0 (antibody, human IgG1, kappa)
heavy 1: not shown
heavy 2: not shown
light: DIVMTQSPLSLPVTPGEPASISCQASESLVHSNRNTYLHWYLQKPGQSPQLLIYKVSNRFSGVPDRFSGSGSGTDFTLKISRVEAEDVGVYYCSQNTHVPPTFGQGTKVEIERTVAAPSVFIFPPSDEQLKSGTASVVCLLNNFYPREAKVQWKVDNALQSGNSQESVTEQDSKDSTYSLSSTLTLSKADYEKHKVYACEVTHQGLSSPVTKSFNRGEC
notes: also called He Ab G237_09D
B9: GpH7-A5/GpH7-B3 variant H268_03V/GpL16-k0 (antibody, human IgG1, kappa)
heavy 1: not shown
heavy 2: not shown
light: DIVMTQSPLSLPVTPGEPASISCQASESLVHSNRNTYLHWYLQKPGQSPQLLIYKVSNRFSGVPDRFSGSGSGTDFTLKISRVEAEDVGVYYCSQNTHVPPTFGQGTKVEIERTVAAPSVFIFPPSDEQLKSGTASVVCLLNNFYPREAKVQWKVDNALQSGNSQESVTEQDSKDSTYSLSSTLTLSKADYEKHKVYACEVTHQGLSSPVTKSFNRGEC
notes: also called He Ab H268_03V
B10: GpH7-A5/GpH7-B3 variant A330_05P/GpL16-k0 (antibody, human IgG1, kappa)
heavy 1: not shown
heavy 2: not shown
light: DIVMTQSPLSLPVTPGEPASISCQASESLVHSNRNTYLHWYLQKPGQSPQLLIYKVSNRFSGVPDRFSGSGSGTDFTLKISRVEAEDVGVYYCSQNTHVPPTFGQGTKVEIERTVAAPSVFIFPPSDEQLKSGTASVVCLLNNFYPREAKVQWKVDNALQSGNSQESVTEQDSKDSTYSLSSTLTLSKADYEKHKVYACEVTHQGLSSPVTKSFNRGEC
notes: also called He Ab A330_05P
B11: GpH7-A5/GpH7-B3 variant A330_01G/GpL16-k0 (antibody, human IgG1, kappa)
heavy 1: not shown
heavy 2: not shown
light: DIVMTQSPLSLPVTPGEPASISCQASESLVHSNRNTYLHWYLQKPGQSPQLLIYKVSNRFSGVPDRFSGSGSGTDFTLKISRVEAEDVGVYYCSQNTHVPPTFGQGTKVEIERTVAAPSVFIFPPSDEQLKSGTASVVCLLNNFYPREAKVQWKVDNALQSGNSQESVTEQDSKDSTYSLSSTLTLSKADYEKHKVYACEVTHQGLSSPVTKSFNRGEC
notes: also called He Ab A330_01G
B12: GpH7-A5/GpH7-B3 variant G237_10E/GpL16-k0 (antibody, human IgG1, kappa)
heavy 1: not shown
heavy 2: not shown
light: DIVMTQSPLSLPVTPGEPASISCQASESLVHSNRNTYLHWYLQKPGQSPQLLIYKVSNRFSGVPDRFSGSGSGTDFTLKISRVEAEDVGVYYCSQNTHVPPTFGQGTKVEIERTVAAPSVFIFPPSDEQLKSGTASVVCLLNNFYPREAKVQWKVDNALQSGNSQESVTEQDSKDSTYSLSSTLTLSKADYEKHKVYACEVTHQGLSSPVTKSFNRGEC
notes: also called He Ab G237_10E
B13: GpH7-A5/GpH7-B3 variant G237_20W/GpL16-k0 (antibody, human IgG1, kappa)
heavy 1: not shown
heavy 2: not shown
light: DIVMTQSPLSLPVTPGEPASISCQASESLVHSNRNTYLHWYLQKPGQSPQLLIYKVSNRFSGVPDRFSGSGSGTDFTLKISRVEAEDVGVYYCSQNTHVPPTFGQGTKVEIERTVAAPSVFIFPPSDEQLKSGTASVVCLLNNFYPREAKVQWKVDNALQSGNSQESVTEQDSKDSTYSLSSTLTLSKADYEKHKVYACEVTHQGLSSPVTKSFNRGEC
notes: also called He Ab G237_20W
B14: GpH7-A5/GpH7-B3 variant G237_06M/GpL16-k0 (antibody, human IgG1, kappa)
heavy 1: not shown
heavy 2: not shown
light: DIVMTQSPLSLPVTPGEPASISCQASESLVHSNRNTYLHWYLQKPGQSPQLLIYKVSNRFSGVPDRFSGSGSGTDFTLKISRVEAEDVGVYYCSQNTHVPPTFGQGTKVEIERTVAAPSVFIFPPSDEQLKSGTASVVCLLNNFYPREAKVQWKVDNALQSGNSQESVTEQDSKDSTYSLSSTLTLSKADYEKHKVYACEVTHQGLSSPVTKSFNRGEC
notes: also called He Ab G237_06M
B15: GpH7-A5/GpH7-B3 variant G237_19Q/GpL16-k0 (antibody, human IgG1, kappa)
heavy 1: not shown
heavy 2: not shown
light: DIVMTQSPLSLPVTPGEPASISCQASESLVHSNRNTYLHWYLQKPGQSPQLLIYKVSNRFSGVPDRFSGSGSGTDFTLKISRVEAEDVGVYYCSQNTHVPPTFGQGTKVEIERTVAAPSVFIFPPSDEQLKSGTASVVCLLNNFYPREAKVQWKVDNALQSGNSQESVTEQDSKDSTYSLSSTLTLSKADYEKHKVYACEVTHQGLSSPVTKSFNRGEC
notes: also called He Ab G237_19Q
B16: GpH7-A5/GpH7-B3 variant G237_15Y/GpL16-k0 (antibody, human IgG1, kappa)
heavy 1: not shown
heavy 2: not shown
light: DIVMTQSPLSLPVTPGEPASISCQASESLVHSNRNTYLHWYLQKPGQSPQLLIYKVSNRFSGVPDRFSGSGSGTDFTLKISRVEAEDVGVYYCSQNTHVPPTFGQGTKVEIERTVAAPSVFIFPPSDEQLKSGTASVVCLLNNFYPREAKVQWKVDNALQSGNSQESVTEQDSKDSTYSLSSTLTLSKADYEKHKVYACEVTHQGLSSPVTKSFNRGEC
notes: also called He Ab G237_15Y
B17: GpH7-A5/GpH7-B3 variant A327_07I/GpL16-k0 (antibody, human IgG1, kappa)
heavy 1: not shown
heavy 2: not shown
light: DIVMTQSPLSLPVTPGEPASISCQASESLVHSNRNTYLHWYLQKPGQSPQLLIYKVSNRFSGVPDRFSGSGSGTDFTLKISRVEAEDVGVYYCSQNTHVPPTFGQGTKVEIERTVAAPSVFIFPPSDEQLKSGTASVVCLLNNFYPREAKVQWKVDNALQSGNSQESVTEQDSKDSTYSLSSTLTLSKADYEKHKVYACEVTHQGLSSPVTKSFNRGEC
notes: also called He Ab A327_07I
B18: GpH7-A5/GpH7-B3 variant G237_13S/GpL16-k0 (antibody, human IgG1, kappa)
heavy 1: not shown
heavy 2: not shown
light: DIVMTQSPLSLPVTPGEPASISCQASESLVHSNRNTYLHWYLQKPGQSPQLLIYKVSNRFSGVPDRFSGSGSGTDFTLKISRVEAEDVGVYYCSQNTHVPPTFGQGTKVEIERTVAAPSVFIFPPSDEQLKSGTASVVCLLNNFYPREAKVQWKVDNALQSGNSQESVTEQDSKDSTYSLSSTLTLSKADYEKHKVYACEVTHQGLSSPVTKSFNRGEC
notes: also called He Ab G237_13S
B19: GpH7-A5/GpH7-B3 variant G237_08L/GpL16-k0 (antibody, human IgG1, kappa)
heavy 1: not shown
heavy 2: not shown
light: DIVMTQSPLSLPVTPGEPASISCQASESLVHSNRNTYLHWYLQKPGQSPQLLIYKVSNRFSGVPDRFSGSGSGTDFTLKISRVEAEDVGVYYCSQNTHVPPTFGQGTKVEIERTVAAPSVFIFPPSDEQLKSGTASVVCLLNNFYPREAKVQWKVDNALQSGNSQESVTEQDSKDSTYSLSSTLTLSKADYEKHKVYACEVTHQGLSSPVTKSFNRGEC
notes: also called He Ab G237_08L
B20: GpH7-A5/GpH7-B3 variant G237_04F/GpL16-k0 (antibody, human IgG1, kappa)
heavy 1: not shown
heavy 2: not shown
light: DIVMTQSPLSLPVTPGEPASISCQASESLVHSNRNTYLHWYLQKPGQSPQLLIYKVSNRFSGVPDRFSGSGSGTDFTLKISRVEAEDVGVYYCSQNTHVPPTFGQGTKVEIERTVAAPSVFIFPPSDEQLKSGTASVVCLLNNFYPREAKVQWKVDNALQSGNSQESVTEQDSKDSTYSLSSTLTLSKADYEKHKVYACEVTHQGLSSPVTKSFNRGEC
notes: also called He Ab G237_04F

Target: T1, FcγRIIb
Test: SPR (Biacore), binding relative to GpH7-B3/GpL16-k0 = 100

Row | Binder | Ho/Con_2b
1 | B1 | 94.4 % of control
2 | B2 | 103 % of control
3 | B3 | 231 % of control

Target: T1, FcγRIIb
Test: SPR (Biacore), binding relative to GpH7-A5/GpH7-B3/GpL16-k0 = 100
Procedure: Analysis of interaction between objective antibody and the FcγR was carried out using Biacore T100 (GE Healthcare). HBS-EP+ (GE Healthcare) was used as the running buffer, and the measurement temperature was set to 25° C. Chips produced by immobilizing the antigen peptide by the amine coupling method to a Series S Sencor Chip CM5 (GE Healthcare), or alternatively, chips produced by allowing preliminarily biotinylated antigen peptides to interact with and immobilize onto a Series S Sensor Chip SA (certified) (GE Healthcare) were used. Antibodies of interest were captured onto an antigen peptide-immobilized chip, and allowed to interact to each FcγR diluted with running buffer. To regenerate and repeatedly use the chip, the antibodies captured on the chip were washed off by reacting 10 mM glycine-HCl, pH 1.5.
The FcγR-binding activity of each antibody was assessed primarily using as an indicator the FcγR-binding activity and dissociation constant for FcγR.

Row | Binder | He/Con_2b
4 | B4 | 124 % of control
5 | B5 | 113 % of control
6 | B6 | 116 % of control
7 | B7 | 180 % of control
8 | B8 | 223 % of control
9 | B9 | 114 % of control
10 | B10 | 137 % of control
11 | B11 | 104 % of control
12 | B12 | 114 % of control
13 | B13 | 193 % of control
14 | B14 | 130 % of control
15 | B15 | 108 % of control
16 | B16 | 152 % of control
17 | B17 | 127 % of control
18 | B18 | 111 % of control
19 | B19 | 148 % of control
20 | B20 | 149 % of control
